Where a chain is given by its changes, count along the chain named. Like-named read-outs stand apart in the source and are kept apart here.
B1: clone MI407 anti-MSLN antibody (antibody, V domains shown)
VH: EVKLVESGGGLVKPGGSLKLSCAASGFPFSNYDMSWVRQTPEKRLEWVAYISSGGGNTYYPDTVKGRFTISRDNAKNTLYLQMSSLKSEDTALYFCVRQGTSVESYWYFDVWGAGTTVTVSS
VL: DIVLTQSPASLAVSLGQRATISCRASQSVSTSSSSYIHWYQQKPGQPPKLLIKYASNLESGVPARFSGSGSGTDFTLNIHPVEEDDTATYYCQHSWEIPFTFGSGTELEIKR
notes: also called M1407
B2: clone MI403 anti-MSLN antibody (antibody, V domains shown)
VH: EVQVVESGGGLVKPGGSLKLSCAASGFAFSSYDMSWVRQTPEKRLEWVAYISSGGGSTYYPDTVKGRFTISRDNAKNTLYLQMNSLKSEDTAMYYCARQGTAVKNYWYFDVWGAGTSVTVSS
VL: B1 VL with L4M, I37V, K43R, D85E, A88G, E107K
notes: also called M1403
B3: clone MI323 anti-MSLN antibody (antibody, V domains shown)
VH: EVQLQQSGPELVKPGTSVKISCKASGYSFTSYFIQWVKQRPGQGLEWIGWIFPGSGNTKYNEMFKGKATLAADTSSSTAYMQLSSLTSEDSAVYFCARSGGYQYYFDYWGQGTSVTVSS
VL: DIVMTQSHKFMSTSVGDRVSITCKASQDVSTAVAWYQQKPGQSPKLLIYSASYRYPGVPDRFTGSGSGTDFTFTISSVQAEDLALYYCQQHYSTPWTFGGGTKLEIKR
notes: also called M1323
B4: clone MS502 anti-MSLN antibody (antibody, V domains shown)
VH: EVQLLESGGGLVQPGGSLRLSCAASGFTFSNYAMSWVRQAPGKGLEWVSGIPPDSGSKYYADSVRGRFTVSRDNSKNTLYLQMNSLRAEDTAVYYCAKNMLSFDYWGQGTLVTVSS
VL: QSVLTQPPSASGTPGQRVTISCTGSSSNIGSNAVSWYQQLPGTAPKLLIYYNSKRPSGVPDRFSGSKSGTSASLAISGLRSEDEADYYCGSWDSSLNGYVFGGGTKVTVLG
notes: SPR and FACS done with IgG: human IgG1 heavy chain constant region
B5: clone MS504 anti-MSLN antibody (antibody, IgG1, V domains shown)
VH: B4 VH with G50S, P52Y, D54N, S55G, G56S, R65K, V70I, T91M, M100L, S102T
VL: B4 VL with T13P, S31N, A33S, N52D, K54H, S77G, S91A, S94D, G98A, V107L
notes: From a phage display synthetic scFv library
B6: clone MS501 anti-MSLN antibody (antibody, V domains shown)
VH: B4 VH with P52Y, K58T, R65K, V70I, K98R, M100I, L101Y, S102T
VL: B4 VL with T23S, S53N, K54Q, N97S, V107L
notes: as for B5
B7: clone 56 (MS502 heavy chain variable region mutation antibody) (antibody, V domains shown)
VH: B4 VH with G56A
VL: B4 VL
notes: SPR done with IgG (human heavy chain constant region vector, MS502 light chain)
B8: clone 56-C2G4 antibody (antibody, V domains shown)
VH: B4 VH with G56A
VL: B4 VL with S94P
notes: IgG (human IgG1 heavy chain constant region; light chain constant region said to be human kappa)
B9: clone MS502-1 anti-MSLN antibody (antibody, V domains shown)
VH: B4 VH
VL: B4 VL with T23I, G24C, V107L
B10: clone 2-78-C2G4 antibody (antibody, V domains shown)
VH: B4 VH with L101F
VL: B4 VL with S94P
notes: as for B8
B11: clone 2-73-C2G4 antibody (antibody, V domains shown)
VH: B4 VH with D54N, G56D
VL: B4 VL with S94P
notes: as for B8
B12: clone 2-30 (MS502 heavy chain variable region mutation antibody) (antibody, V domains shown)
VH: B4 VH with G56N, L101R, S102T
VL: B4 VL
notes: as for B7
B13: clone MS503 anti-MSLN antibody (antibody, IgG1, V domains shown)
VH: B4 VH with G50S, P52Y, D54G, S55D, K58T, R65K, V70I, M100A, L101F, S102T
VL: B4 VL with T23S, K54H, S91T, N97S, V107L
notes: as for B5
B14: clone MS505 anti-MSLN antibody (antibody, IgG1, V domains shown)
VH: B4 VH with G50A, P52Y, S55G, G56S, S57N, R65K, K98R, M100A, L101Y, S102T
VL: B4 VL with Q16R, T23S, K54Q, V107L
notes: as for B5
B15: clone 2-30-C2G4 antibody (antibody, V domains shown)
VH: B4 VH with G56N, L101R, S102T
VL: B4 VL with S94P
notes: as for B8
B16: clone 2-78 (MS502 heavy chain variable region mutation antibody) (antibody, V domains shown)
VH: B4 VH with L101F
VL: B4 VL
notes: as for B7
B17: clone MS506 anti-MSLN antibody (antibody, IgG1, V domains shown)
VH: B4 VH with G50S, P52Y, D54G, K58T, R65K, V70I, K98R, M100L, L101Y, S102T
VL: B4 VL with S35T, N52D, K54H, L79P, S91A, N97S, G98A, V107L
notes: as for B5
B18: clone MI329 anti-MSLN antibody (antibody, V domains shown)
VH: EVMLVESGGDLVKPGGSLKLSCAASGFTFSSYAMSWVRRTPEKRLEWVATINSDGSYTFYPDSVKGRFTISRDNAKNTLYLQMNSLRSEDTAMYYCARWGENWYFDVWGAGTTVTVSS
VL: DVVMTQTPLSLPVSLGDQASISCRSSQSLVHSNGNTYLHWYLQKPGQSPKLLIYKVSNRFSGVPDRFSGSGSGTDFTLKISRVEAEDLGIYFCSQSTHFPRTFGGATKLELKR
notes: also called M1329

Assays:
[1] = target: T1, human mesothelin (MSLN) on the cell surface (human, UniProt Q13421 296-598); assay: FACS on MSLN stable cell line (#2), left panels; sheet note: 1st Ab 1 µg (1st assay), 2nd Ab anti-human Fc antibody FITC
T1 construct: also called MSLN of mesothelioma (H226, H2052) and pancreatic cancer (AsPC-1) cell lines; MSLN on MiaPaCa-MSLN #2 cells
T1 sequence (Q13421 other isoform, or with tags, fused parts or gaps limits assumed): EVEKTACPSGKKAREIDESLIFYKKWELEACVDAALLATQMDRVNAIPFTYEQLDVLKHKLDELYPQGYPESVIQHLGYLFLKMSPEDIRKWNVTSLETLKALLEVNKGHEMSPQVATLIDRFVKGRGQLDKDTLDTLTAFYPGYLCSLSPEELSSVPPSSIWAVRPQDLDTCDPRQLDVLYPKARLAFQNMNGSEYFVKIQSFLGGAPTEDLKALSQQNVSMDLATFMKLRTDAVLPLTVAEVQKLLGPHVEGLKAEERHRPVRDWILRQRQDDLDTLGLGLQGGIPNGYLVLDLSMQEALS
Description: FACS test was performed on the MSLN present in the cell surface with regard to MiaPaCa-MSLN which is a cell line in which the MSLN was artificially expressed. Cells to be analyzed that were grown in a culture dish were separated by adding a Tryple Express solution and stored in a 50 mL tube, followed by centrifugation at 2000 rpm at room temperature for 3 minutes to decant the culture fluid, and the obtained product was washed once with PBS. The cells were suspended with FACS buffer, and transferred to a round bottom tube and centrifuged at 2000 rpm at room temperature for 3 minutes. The supernatant was discarded and the cells were well-loosened with the FACS buffer so as to have a cell density of 4×10⁵/mL. Then, 1 μg of candidate antibody was added thereto at 4° C. After 1 hour, the resultant material was washed with the FACS buffer twice, and goat-derived anti-human IgG antibody (FITC junction) was added in an amount of 1 μL for each sample to be combined at 4° C. for 30 minutes. The cells were collected by centrifugation at 2000 rpm for 3 minutes, and 500 μL of fixation buffer was added to resuspend the cells, and the cells were measured by FACS calibur (FIG. 6).
The FACS test was performed to evaluate whether the anti-MSLN antibody was selectively bound to the MSLN-overexpressing cell line (MiaPaCa-MSLN #2). The anti-MSLN candidate antibody was labeled by the method described in Example 4-2 above, and the cells were measured by FACS calibur (FIG. 7).

[2] = target: T2, recombinant human mesothelin (MSLN) (human, UniProt Q13421 296-580, limits assumed); assay: SPR, Biacore T-200; MSLN amine-coupled to CM5 chip, IgG in flow
T2 construct: also called human MSLN; recombinant human MSLN
T2 sequence (Q13421 other isoform, or with tags, fused parts or gaps limits assumed): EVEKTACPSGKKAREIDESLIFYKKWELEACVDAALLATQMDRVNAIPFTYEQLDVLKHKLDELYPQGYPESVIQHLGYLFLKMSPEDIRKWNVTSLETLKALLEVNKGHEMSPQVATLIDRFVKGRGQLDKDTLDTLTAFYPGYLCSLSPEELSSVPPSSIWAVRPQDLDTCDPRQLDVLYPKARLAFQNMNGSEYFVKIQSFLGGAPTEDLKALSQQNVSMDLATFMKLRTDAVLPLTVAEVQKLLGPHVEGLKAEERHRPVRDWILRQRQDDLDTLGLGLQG
Description: Quantitative binding force (affinity) of the purified anti-MSLN antibodies, i.e., MI323, MI329, MI403, MS502 clone antibodies with regard to recombinant human mesothelin (MSLN) was measured by using a Biacore T-200 (GE Healthcare, U.S.A.) biosensor. […] Then, […] serially diluted with HBS-EP buffer (10 mM HEPES, pH7.4, 150 mM NaCl, 3 mM EDTA, 0.005% surfactant P20) was allowed to flow at a concentration range of 0.078 nM to 5 nM and at a flow rate of 30 μL/min for association of 120 seconds and dissociation of 1800 seconds. The dissociation of the antibody bound to the MSLN was induced by flowing 10 mM Glycine-HCl pH 1.5 at a flow rate of 30 μL/min for 30 seconds (Table 7). The affinity was obtained as movement speed constants (Kₒₙ and Koff) and an equilibrium dissociation constant (KD) by using a Biacore T-200 evaluation software (Table 8).

[3] = target: T1, human mesothelin (MSLN) on the cell …; assay: FACS on MiaPaCa-MSLN #2 cells, upper histogram and table
[4] = target: T2, recombinant human mesothelin (MSLN); assay: ELISA, clone supernatant on MSLN-coated plate
Description: Single colonies of a phage display synthetic scFv library final amplified population were collected, and cultured with 1.5 mL of SB/carbenicillin to an OD₆₀₀ of 0.8 to 1.0 at 37° C. and at 220 rpm, and then cultured with 1 mM IPTG at 30° C. and at 200 rpm for 12 hours or more. The reaction materials were centrifuged at 5500 rpm for 5 minutes, and only each supernatant was added to ELISA plates containing underlying MSLN antigen, and reacted at room temperature for 2 hours. Then, the resultant materials were washed with PBST (1×PBS, 0.05% tween 20) four times, and HRP/Anti-hFab-HRP conjugate diluted by 1/5000 with 1% BSA/1×PBS was added thereto, and reacted at room temperature for 1 hour, and washed with PBST (1×PBS, 0.05% tween 20) 4 times. Then, a TMB solution was added thereto and reacted for 5 to 10 minutes, and a TMB stop solution was added thereto. Next, O.D values were measured at a measurement wavelength of 450 nm using a TECAN sunrise, and clones having high O.D. value were secured as individual clones.

[5] = target: T2, recombinant human mesothelin (MSLN); assay: SPR, Biacore T-200; MSLN amine-coupled to CM5 chip, IgG in flow; remark: listed apart in the source
Description: The quantitative binding force (affinity) of each of the purified anti-MSLN antibodies, i.e., MS502 clone heavy chain variable region mutation antibodies 56, 2-30, 2-73, 2-78, and the combination antibodies of the C2G4 light chain variable region and the heavy chain variable region mutation antibodies including 56-C2G4, 2-30-C2G4, 2-73-C2G4, 2-78-C2G4 with regard to recombinant human mesothelin (MSLN) was measured by using a Biacore T-200 (GE Healthcare, U.S.A.) biosensor. […] Then, the clone 56 antibody, the clone 2-30 antibody, the clone 2-73 antibody, the clone 2-78 antibody, the clone 56-C2G4 antibody, the clone 2-30-C2G4 antibody, the clone 2-73-C2G4 antibody, and the clone 2-78-C2G4 antibody serially diluted with HBS-EP buffer (10 mM HEPES, pH7.4, 150 mM NaCl, 3 mM EDTA, 0.005% surfactant P20) were allowed to flow at a concentration range of 0.078 nM to 5 nM and at a flow rate of 30 μL/min for association of 120 seconds and dissociation of 1800 seconds. The dissociation of the antibody bound to the MSLN was induced by flowing 10 mM Glycine-HCl pH 1.5 at a flow rate of 30 μL/min for 30 seconds (Table 17). The affinity was obtained as movement speed constants (Kₒₙ and Koff) and an equilibrium dissociation constant (KD) by using a Biacore T-200 evaluation software (Table 18).

| Binder | Mean, FL1-H [1] | Kd [5] [nM] | other results |
| --- | --- | --- | --- |
| B1 | 225 | – | – |
| B2 | 250 | – | Kd [2]: 0.45 nM |
| B3 | 419 | – | Mean, FL2-H [3]: 2880; Kd [2]: 0.18 nM |
| B4 | 293 | – | Mean, FL2-H [3]: 2280; Kd [2]: 0.23 nM |
| B5 | – | – | binding result [4]: binds |
| B6 | – | – | binding result [4]: binds |
| B7 | – | 0.125 | – |
| B8 | – | 0.163 | – |
| B9 | – | – | binding result [4]: binds |
| B10 | – | 0.0372 | Mean, FL2-H [3]: 2280 |
| B11 | – | 0.165 | – |
| B12 | – | 0.166 | – |
| B13 | – | – | binding result [4]: binds |
| B14 | 181 | – | – |
| B15 | – | 0.234 | – |
| B16 | – | 0.0163 | – |
| B17 | – | – | binding result [4]: binds |
| B18 | 410 | – | Kd [2]: 0.035 nM |

Reference: patent publication US20180346588A1 (MOGAM INSTITUTE FOR BIOMEDICAL RESEARCH, published 2018)
